The target of assay [1] is T1, TMEM97 (S2R) containing HEK293T membranes (Homo sapiens, UniProt Q5BJF2).
T1 construct: expressed in transfected cells; host or cells: HEK293T (transient overexpression; membranes prepared by UNC PDSP)
The assay can be described thus: Radioligand binding/competition assay with [3H]-DTG (UNC PDSP). The following applies: secondary radioligand binding assay; hot ligand [3H]-DTG.

For a further assay, the system named is Candida albicans. The following applies: cited from earlier work.
The subject of another assay is human corneal epithelium. In words: Hyperosmolarity-induced apoptotic signals (Caspase 3/7). The conditions noted are these: 450 mOsm. The format is cell-based. The text has this: (§1) Apoptosis. […] BAK and hOsm are standard inducers of corneal epithelial and neuronal cell death and toxicity, phenomena which are associated with ocular surface pain and chronic pain syndromes.

Assay [2] concerns Human corneal epithelial cells. The assay can be described thus: Cell viability of BAK-treated human corneal epithelial cells. The format is cell-based. The conditions noted are these: benzalkonium chloride (BAK) treatment.
Excerpt: as §1

Assay [3] deals with Human corneal epithelial cells. In words: Calcium Green-2 calcium signaling in human corneal epithelial cells. The format is cell-based. The protocol: Calcium Signaling. Human corneal epithelial cells were treated with Hst1 or Hst5, stained with Calcium Green-2, and relative fluorescence intensity was monitored at 1, 2 and 4 hours. […] This normalization of cellular calcium levels seen after toxicity from benzalkonium chloride treatment is analogous to toxic effects seen in chronic pain and other conditions. As such, histatin peptides may of use in the amelioration of chronic pain.

Assay [4] deals with T2, Synthetic TMEM97 (108-176) peptide.
T2 construct: Synthetic peptide; also called full C-terminal synthetic TMEM97
T2 peptide: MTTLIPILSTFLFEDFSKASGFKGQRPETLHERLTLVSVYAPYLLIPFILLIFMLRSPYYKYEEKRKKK
The assay can be described thus: SPR.

Assay [5] concerns the target T3, Synthetic TMEM97 (108-143) peptide.
T3 construct: Synthetic peptide; also called (predicted) luminal segment
T3 peptide: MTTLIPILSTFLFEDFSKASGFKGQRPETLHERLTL
In words: SPR. In general terms: SPR reads the build-up and loss of mass on a sensor chip optically.

For assay [6], the target named is T4, GST-TMEM97 (108-176), recombinant from wheat germ (Abnova) (UniProt Q5BJF2 108-176).
T4 construct: not shown: GST tag
The assay can be described thus: SPR.

Assay [7] addresses T5, Synthetic TMEM97 (144-176) peptide.
T5 construct: Synthetic peptide; also called (predicted) cytoplasmic segment
T5 peptide: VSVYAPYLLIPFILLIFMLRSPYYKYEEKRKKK
In words: SPR.

For assay [8], the target named is T4, GST-TMEM97 (108-176), recombinant from …. In words: SPR, GST-TMEM97 (108-176) immobilized on CM5 chip, Hst1 as analyte; GST-tagged wheat-germ TMEM97 (108-176); SPR.
In assay [9] the target is T2, Synthetic TMEM97 (108-176) peptide. The assay can be described thus: ITC, Hst1 titrated into synthetic TMEM97 (108-176); ITC, not SPR; TMEM97 (108-176).
Assay [10] has the same target. In words: SPR, synthetic TMEM97 (108-176) immobilized, Hst1 as analyte; SPR; synthetic TMEM97 (108-176).
For assay [11], the target named is T5, Synthetic TMEM97 (144-176) peptide. The assay can be described thus: ITC, Hst1 titrated into the C-terminal TMEM97 peptide (taken as 144-176). Background: In ITC the heat of successive injections is recorded.
For assay [12] the target is unchanged. The assay can be described thus: ITC, Hst1 titrated into the C-terminal TMEM97 peptide (taken as 144-176); ITC, not SPR; C-terminal fragment taken as 144-176.
Assay [13] shares this target. The assay can be described thus: SPR, synthetic TMEM97 (144-176) immobilized, Hst1 as analyte; SPR; synthetic TMEM97 (144-176).
Assay [14] addresses T2, Synthetic TMEM97 (108-176) peptide. The assay can be described thus: ITC, Hst1 titrated into synthetic TMEM97 (108-176).
The target of assay [15] is T6, Recombinant full-length TMEM97 (from HEK293 cells, OriGene) (UniProt Q5BJF2 1-176).
T6 construct: Bought protein, said to be full-length; Immobilized on a CM5 chip; also called MAC30
In words: SPR, TMEM97 immobilized on CM5 chip.

Square brackets hold non-standard residues; d marks the D form. Ends that are not written are not given here. pS = N[C@@H](COP(=O)(O)O)C(=O)O

T1 sequence (Q5BJF2 whole entry, species assumed): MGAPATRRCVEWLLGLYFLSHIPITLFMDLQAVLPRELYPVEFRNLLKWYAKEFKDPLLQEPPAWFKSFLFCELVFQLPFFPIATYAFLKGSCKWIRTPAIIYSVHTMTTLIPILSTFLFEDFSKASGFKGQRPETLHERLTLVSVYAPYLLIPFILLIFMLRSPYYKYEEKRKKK

Molecule `CC(C)C[C@H](NC(=O)[C@H](Cc1ccc(O)cc1)NC(=O)[C@H](CC(N)=O)NC(=O)[C@H](CO)NC(=O)[C@H](CCCNC(=N)N)NC(=O)[C@H](Cc1ccc(O)cc1)NC(=O)CNC(=O)[C@H](CCCNC(=N)N)NC(=O)[C@H](Cc1c[nH]cn1)NC(=O)[C@H](CO)NC(=O)[C@H](Cc1c[nH]cn1)NC(=O)[C@H](Cc1c[nH]cn1)NC(=O)[C@H](CCCCN)NC(=O)[C@H](CCC(=O)O)NC(=O)[C@H](Cc1c[nH]cn1)NC(=O)[C@H](Cc1ccccc1)NC(=O)[C@H](CCCCN)NC(=O)[C@H](CCCNC(=N)N)NC(=O)[C@H](CCCCN)NC(=O)[C@H](Cc1ccc(O)cc1)NC(=O)CNC(=O)[C@H](Cc1c[nH]cn1)NC(=O)[C@H](Cc1c[nH]cn1)NC(=O)[C@H](CCCNC(=N)N)NC(=O)[C@H](CCCCN)NC(=O)[C@H](C)NC(=O)[C@H](Cc1c[nH]cn1)NC(=O)[C@H](CO)NC(=O)[C@@H](N)CC(=O)O)C(=O)N[C@@H](Cc1ccc(O)cc1)C(=O)N[C@@H](CC(=O)O)C(=O)N[C@@H](CC(N)=O)C(=O)O` [Hst3] had an inhibition constant (Ki) in [1] of 1090 nM.

Turning to “AKRHHGYKRKFH [Histatin P-113, histatin-derived antimicrobial peptide]”, in the assay on Candida albicans, the fungicidal activity entry is listed as “fungicidal activity”.

Take `C[C@H](NC(=O)[C@H](Cc1c[nH]cn1)NC(=O)[C@H](CO)NC(=O)[C@@H](N)CC(=O)O)C(=O)N[C@@H](CCCCN)C(=O)N[C@@H](CCCNC(=N)N)C(=O)N[C@@H](Cc1c[nH]cn1)C(=O)N[C@@H](Cc1c[nH]cn1)C(=O)NCC(=O)N[C@@H](Cc1ccc(O)cc1)C(=O)N[C@@H](CCCCN)C(=O)N[C@@H](CCCNC(=N)N)C(=O)N[C@@H](CCCCN)C(=O)N[C@@H](Cc1ccccc1)C(=O)N[C@@H](Cc1c[nH]cn1)C(=O)N[C@@H](CCC(=O)O)C(=O)N[C@@H](CCCCN)C(=O)N[C@@H](Cc1c[nH]cn1)C(=O)N[C@@H](Cc1c[nH]cn1)C(=O)N[C@@H](CO)C(=O)N[C@@H](Cc1c[nH]cn1)C(=O)N[C@@H](CCCNC(=N)N)C(=O)NCC(=O)N[C@@H](Cc1ccc(O)cc1)C(=O)O` [Hst5]: the “hyperosmolarity-induced apoptotic signals (Caspase 3/7)” value in the assay with human corneal epithelium is given as “abrogates the effects of toxic hyperosmolarity”. This molecule also registered a Ki in assay [1] of 582 nM. The “BAK-induced loss of cell viability” value in [2] is on record as “abrogated”. In addition, the “calcium signaling (relative fluorescence intensity)” value in assay [3] (1, 2 and 4 hours) is on record as “increases calcium signaling”. For the same molecule, the “elevated calcium levels after benzalkonium chloride” value in assay [3] (cells treated with 0.001% BAK) was “reduced elevated calcium levels”.

Consider DSHEKRHHGYRRKFHEKHHSHREFPF (not fully specified (residue 2); ends and bridges not checked, Fragment of Hst1) [Hst1(1-26)], for which the results for the Kd in assay [4], in [6] and in assay [7] were 1300 nM, 2100 nM and 1700 nM, respectively. Also, the binding result in assay [5] is on record as “no binding”.

B1: Histatin 1 (Hst1) (peptide)
peptide: D[pS]HEKRHHGYRRKFHEKHHSHREFPFYGDYGSNYLYDN
notes: Synthetic linear peptide made by Fmoc solid-phase synthesis; also called Hst1(1-38); H1
In the case of B1, the Kd in assay [8] was found to be 1600 nM; in [4] it was 2400 nM; in assay [6] it was 1500 nM; in assay [7] it was 2400 nM; in assay [9], 890 nM; in [10], 2800 nM. Further, the equilibrium dissociation constant (Kd) in assay [12] was determined as 460 nM; in assay [13], 2700 nM. In assay [5], the binding result is recorded as “no binding”. Also, the ΔH in assay [11] was -790 kcal/mol; in [14], -4.9 kcal/mol. The ΔS is -2280 cal/mol K in assay [11] and 11.6 cal/mol K in assay [14].

B2: Hst1 scrambled peptide (Hst1SP) (peptide)
peptide: HYHKFHRYYDPGSNLYKEHNHGFHHGYKDEFRRE[pS]RDS
notes: Synthetic scrambled control of Hst1; also called scrambled peptide control version of Hst1
On to B2, for which the binding result in assay [15] is reported as “no binding”.

DSHEKRHHGYRRKF (not fully specified (residue 2); ends and bridges not checked, Fragment of Hst1) [Hst1(1-14)]: the binding result in [4], in assay [5] and in [7] was “no binding” each time.

DSHEKRHHGYRRKFHEKHH (not fully specified (residue 2); ends and bridges not checked) [Hst1(1-19)]: the Kd in assay [4] turned out to be 12700 nM; in [6], 3600 nM; in [7], 8800 nM.

Usually Ki stands for a dissociation constant, usually derived from enzyme kinetics or from competition with a known ligand. The low end stands for tighter binding, the high end for weaker binding. For orientation: Kd means the concentration at which binding is half-saturated.
